Reference: patent US20070036810A1, “Cyclic amp response element activator proteins and uses related thereto” (priority 2003, published 2007)
One block for each molecule: values may come before it.

What was measured:
human IL-8 promoter = assay: pGL2-IL-8p-Luc reporter inducibility in HEK 293 cells; assay type: cell-based; settings: expression construct co-transfected into HEK 293 cells, 48 hours post transfection
Experimental: A luciferase reporter controlled by a 1.5 kB IL-8 promoter containing fragment of human IL-8 promoter was tested for inducibility by known regulators of cytokine-mediated gene expression. pNF-κB-Luc (BD Biosciences) and pGL2-IL-8p-Luc reporters were co-transfected into HEK 293 cells with expression constructs encoding known activators of the NF-κB pathway, truncated MEKK (AA 360-672) (Stratagene) and a full length TRAF6 cDNA made according to conventional methods using a proprietary clone collection. Cells co-transfected with empty pCMV-Sport6 vector were either left untreated or treated with TNFα (50 ng/ml, for 16 hours). Luciferase activity was measured 48 hours post transfection. The pNF-κB-Luc reporter was used as a positive control.

[1] = system: minimal promoter linked to multiple copies of CRE; assay: CRE-Luc reporter co-transfection assay with the CREAP gene family; assay type: cell-based; settings: for CRE: level of expression of luciferase relative to empty vector: cotransfection, relative to empty pCMV-SPORT6 vector
Description: (§1) The entire amino acid sequence for CREAP1 was used in a BLASTP search of a public NCBI database. Initially two public domain cDNAs (XM—117201 and FLJ00364) were identified that have significant homology to the CREAP1 coding region. The nucleotide sequence of XM—117201 was used in a BLASTN search (Altschul S. F. et al., Nucleic Acids Res. 25:3389-3402 (1997)) of a proprietary cDNA library EST database and 4 clones were identified that represent XM—117201 public sequence. All 4 clones were functionally tested upon co-transfection with the CRE-Luc and IL-8p-Luc reporters initially found to be induced by CREAP using methods similar to those disclosed above. Briefly, trypsinized HeLa cells are resuspended in complete growth media at 6×10^4 cells/ml and distributed into white 96-well plates (Costar) in the volume of 100 μl per well. Cells are left overnight in a tissue culture incubator at 37° C. and 5% CO2. pGL3B-IL-8p-Luc reporter plasmid or CRE-Luc reporter (BD Biosciences) as well as tested cDNAs are resuspended in OptiMEM I low serum media (GIBCO BRL) at 25 ng/ml. The reporter plasmids and cDNAs are then distributed into 96-well clean PCR plates (ABGene) at 4 μl/well and 3 μl/well respectively. Mixture containing Fugene 6 reagent (Roche Applied Bioscience) at 1.5 μl per transfection and pRL-SV40 (Promega) plasmid 20 ng per transfection is added in the volume of 10 μl per well of the 96-well PCR plate containing prediluted cDNAs. […]
(§2) The activity of firefly and Renilla luciferase is measured using the DualGlo Luciferase Assay System (Promega) following the protocol supplied by the manufacturer. Briefly, 115 μl of freshly reconstituted luciferase reagent is added to each well of the 96-well tissue culture plates with a Multidrop 384 and, after 15 minutes incubation, luminescence is read on a LUMINOSKAN Ascent Luminometer (Thermo Labsystems) with a 400 msec integration time. Subsequently, 115 μl of Stop-and-Glo reagent is added to each well of the 96-well tissue culture and, after 15 minutes incubation, luminescence is read on a LUMINOSKAN Ascent Luminometer with a 200 msec integration time. The activity of each tested cDNA is measured as a ratio of the corresponding firefly and Renilla luciferase activities.
To investigate this, the ability of CREAP2 and CREAP3 to activate gene expression driven by the IL-8 promoter and a CRE-dependent promoter was tested in co-transfection assays as disclosed above. Briefly, the levels of expression of a luciferase reporter driven by either the IL-8 promoter or a minimal promoter linked to 4 copies of CRE were determined after cotransfection with either an empty pCMV-SPORT6 expression vector or with the same vector carrying a cDNA for CREAP1, CREAP2 or CREAP3. […]

Interleukin-8 promoter = assay: IL-8 promoter luciferase reporter co-transfection assay with the CREAP gene family; assay type: cell-based, human; settings: cotransfection, relative to empty pCMV-SPORT6 vector
Description: as §1, with “respectively.” for “respectively. Mixture containing Fugene 6 reagent (Roche Applied Bioscience) at 1.5 μl per transfection and pRL-SV40 (Promega) plasmid 20 ng per transfection is added in the volume of 10 μl per well of the 96-well PCR plate containing prediluted cDNAs.”
as §2, with “activities. […]” for “activities.”

[2] = system: GAL4 DNA binding sites (UAS-Luc, pFR-Luc reporter); assay: GAL4 DNA binding domain fusion transactivation assay (pFR-Luc) in HEK 293 cells; assay type: cell-based; settings: normalized to pCMV-BD vector
Description: To determine if CREAP proteins can act as a transcription activators, various regions of all 3 CREAP homologs (amino acids 300-650 of CREAP1, amino acids 296-694 of CREAP2 and amino acids 335-635 of CREAP3) were expressed as fusion proteins with the DNA binding domain of GAL4 and tested for the ability to activate expression of a reporter gene linked to GAL4 protein binding sequences (UAS-Luc (pFR-Luc reporter). Briefly, the indicated regions of CREAP1, CREAP2 and CREAP3 were amplified by PCR and subcloned in frame into pCMV-BD vector (Stratagene) encoding GAL4 DNA binding domain. Selected plasmids and empty vector (pCMV-SPORT6) were transfected into HEK 293 cells at 75 ng/well using Fugene6 transfection reagent (Roche) as described above. pFR-Luc reporter (Stratagene) encoding firefly luciferase gene driven by minimal promoter linked to 5 concatamerized GAL4 binding sites (UAS) was co-transfected at 100 ng/well. As a positive control, the reporter was also co-transfected with a plasmid encoding GAL4-CREB fusion protein (Stratagene) alone or in the presence of pFC-PKA an expression construct encoding catalytic subunit of protein kinase A (Stratagene) to activate the CREB kinase inducible activation domain. Fold induction was compared to the reporter's activity measured in the cells transfected with pCMV-BD an expression vector carrying GAL4 DNA binding domain only.
Expression constructs encoding full length CREAP1, CREAP2 and CREAP3 as well as a Gal4 DNA binding domain alone or fused with C-terminal portions of CREAP1, CREAP2 and CREAP3 were tested for the ability to induce expression of a luciferase gene controled by a minimal promoter linked to GAL4 DNA binding sites (pFRLuciferase). The data shown are normalized to the value seen with pCMV-BD vector co-transfected with pFR-Luc reporter.

GAL4-CREB fusion protein = assay: GAL4-CREB activation assay in HLR cell line; assay type: cell-based; settings: HLR cell line with integrated pFR-Luc reporter, normalized to pCMV-BD vector
Experimental: To determine if CREAP proteins can directly activate CREB1 protein, the expression constructs of CREAP1, CREAP2 and CREAP3 were transfected individually or with GAL4-CREB plasmid (Stratagene) into HLR cell line (Stratagene) carrying genomic DNA integrated copies of pFR-Luc reporter. Briefly, HLR cells were maintained per manufacturer's instructions. Selected plasmids and either empty vector (pCMV-BD) or GAL4-CREB plasmid were transfected at 75 ng/well using Fugene6 transfection reagent (Roche) as described above. As a positive control pFC-PKA an expression construct encoding catalytic subunit of protein kinase A (Stratagene) was also co-trasfected with GAL4-CREB. Fold of activation was compared to the reporter's activity measured in the cells transfected with empty vector.
The ability of full length CREAP1, CREAP2 and CREAP3 to induce the activity of GAL4-CREB fusion protein (Stratagene) was tested. The data presented are normalized to the value seen with pCMV-BD vector. […] Note the fold induction obtained with positive control is lower when compared to the data from Table 6 when all the plasmids including the reporter were transiently transfected.

B1: TRAF6: full length TRAF6 cDNA expression construct; TNF receptor-associated factor 6 (protein, UniProt Q9Y4K3 1-522, looked up)
chain: MSLLNCENSCGSSQSESDCCVAMASSCSAVTKDDSVGGTASTGNLSSSFMEEIQGYDVEFDPPLESKYECPICLMALREAVQTPCGHRFCKACIIKSIRDAGHKCPVDNEILLENQLFPDNFAKREILSLMVKCPNEGCLHKMELRHLEDHQAHCEFALMDCPQCQRPFQKFHINIHILKDCPRRQVSCDNCAASMAFEDKEIHDQNCPLANVICEYCNTILIREQMPNHYDLDCPTAPIPCTFSTFGCHEKMQRNHLARHLQENTQSHMRMLAQAVHSLSVIPDSGYISEVRNFQETIHQLEGRLVRQDHQIRELTAKMETQSMYVSELKRTIRTLEDKVAEIEAQQCNGIYIWKIGNFGMHLKCQEEEKPVVIHSPGFYTGKPGYKLCMRLHLQLPTAQRCANYISLFVHTMQGEYDSHLPWPFQGTIRLTILDQSEAPVRQNHEEIMDAKPELLAFQRPTIPRNPKGFGYVTFMHLEALRQRTFIKDDTLLVRCEVSTRFDMGSLRREGFQPRSTDAGV
modifications: full-length
increase of IL-8 promoter-reporter activity (human IL-8 promoter): 4.9 times

CRE: level of expression of luciferase relative to empty vector [1]: 71.4
IL-8: level of expression of luciferase relative to empty vector (Interleukin-8 promoter): 574.5714
B2: CREAP3: human CREAP family protein of 619 amino acids, SEQ ID NO 25; reconstructed full-length FLJ00364 cDNA (protein)
chain: MAASPGSGSANPRKFSEKIALHTQRQAEETRAFEQLMTDLTLSRVQFQKLQQLRLTQYHGGSLPNVSQLRSNASEFQPSFHQADNVRGTRHHGLVERPSRNRFHPLHRRSGDKPGRQFDGSAFGANYSSQPLDESWPRQQPPWKDEKHPGFRLTSALNRTNSDSALHTSALSTKPQDPYGGGGQSAWPAPYMGFCDGENNGHGEVASFPGPLKEENLLNVPKPLPKQLWETKEIQSLSGRPRSCDVGGGNAFPHNGQNLGLSPFLGTLNTGGSLPDLTNLHYSTPLPASLDTTDHHFGSMSVGNSVNNIPAAMTHLGIRSSSGLQSSRSNPSIQATLNKTVLSSSLNNHPQTSVPNASALHPSLRLFSLSNPSLSTTNLSGPSRRRQPPVSPLTLSPGPEAHQGFSRQLSSTSPLAPYPTSQMVSSDRSQLSFLPTEAQAQVSPPPPYPAPQELTQPLLQQPRAPEAPAQQPQAASSLPQSDFQLLPAQGSSLTNFFPDVGFDQQSMRPGPAFPQQVPLVQQGSRELQDSFHLRPSPYSNCGSLPNTILPEDSSTSLFKDLNSALAGLPEVSLNVDTPFPLEEELQIEPLSLDGLNMLSDSSMGLLDPSVEETFRADRL
modifications: human
notes: reconstructed full-length FLJ00364 cDNA
higher level of induction of gene expression compared to CREAP1 and CREAP2 ([1]; CRE and IL-8 promoter reporters): 2-4 fold
Fold Induction [2]: 1.58
Fold Induction (GAL4-CREB fusion protein): 2.458

CRE: level of expression of luciferase relative to empty vector [1]: 38.6
IL-8: level of expression of luciferase relative to empty vector (Interleukin-8 promoter): 126.8571
B3: CREAP2: human CREAP family protein of 693 amino acids, SEQ ID NO 16 (protein)
chain: MATSGANGPGSATASASNPRKFSEKIALQKQRQAEETAAFEEVMMDIGSTRLQAQKLRLAYTRSSHYGGSLPNVNQIGSGLAEFQSPLHSPLDSSRSTRHHGLVERVQRDPRRMVSPLRRYTRHIDSSPYSPAYLSPPPESSWRRTMAWGNFPAEKGQLFRLPSALNRTSSDSALHTSVMNPSPQDTYPGPTPPSILPSRRGGILDGEMDPKVPAIEENLLDDKHLLKPWDAKKLSSSSSRPRSCEVPGINIFPSPDQPANVPVLPPAMNTGGSLPDLTNLHFPPPLPTPLDPEETAYPSLSGGNSTSNLTHTMTHLGISRGHGPGPGYDAPGLHSPLSHPSLQSSLSNPNLQASLSSPQPQLQGSHSHPSLPASSLACHVLPTTSLGHPSLSAPALSSSSSSSSTSSPVLGAPSYPASTPGASPHHRRVPLSPLSLLAGPADARRSQQQLPKQFSPTMSPTLSSITQGVPLDTSKLSTDQRLPPYPYSSPSLVLPTQPHTPKSLQQPGLPSQSCSVQSSGGQPPGRQSHYGTPYPPGPSGHGQQSYHRPMSDFNLGNLEQFSMESPSASLVLDPPGFSEGPGFLGGEGPMGGPQDPHTFNHQNLTHCSRHGSGPNIILTGDSSPGFSKEIAAALAGVPGFEVSAAGLELGLGLEDELRMEPLGLEGLNMLSDPCALLPDPAVEESFRSDRLQ
modifications: human
Fold Induction [2]: 2.47
Fold Induction (GAL4-CREB fusion protein): 2.435
